Substrate: Nc1nc2c(c(=O)[nH]1)N1CN(c3ccc(C(=O)N[C@@H](CCC(=O)O)C(=O)O)cc3)CC1CN2
Assay: purified protein
Type: biochemical, Homo sapiens
Settings: co-substrate dUMP; mixed diastereoisomers (6R,S)

B1: TS isolated from human ovarian CH1 cells (CH1 TS) (Homo sapiens) (protein)
chain: PVAGSELPRRPLPPAAQERDAEPRPPHGELQYLGQIQHILRCGVRKDDRTGTGTLSVFGMQARYSLRDEFPLLTTKRVFWKGVLEELLWFIKGSTNAKELSSKGVKIWDANGSRDFLDSLGFSTREEGDLGPVYGFQWRHFGAEYRDMESDYSGQGVDQLQRVIDTIKTNPDDRRIIMCAWNPRDLPLMALPPCHALCQFYVVNSELSCQLYQRSGDMGLGVPFNIASYALLTYMIAHITGLKPGDFIHTLGDAHIYLNHIEPLKIQLQREPRPFPKLRILRKVEKIDDFKAEDFQIEGYNPHPTIKMEMAV
notes: native enzyme partially purified from CH1 ovarian tumour cells (parental line), no tag
- Km: 24 ± 0.8 µM
